Laboratory results reported in a protein production outcome set (Wang et al. 2014).

Test: label from the status in PepcDB records

Sequence	protein production
MSDKLFSIVTISFNQAQFLREAVESVLAQKGGDIEYIVVDPGSTDGSREILAEYRSAIDHLILEADHGPGDGLNKGFARANGRYGYFLNSDDFLLPGAIDIMRTLWQRHKNTDVLLCGAWMVDENRRPQRELRPSPVTLEKLLDGEAKIVQQGMSFRMDLFRKVGGFNVGNRTCWDYELLCDFLAAGAAVTQSEARLAAFRIHSASISGGIGGELATKRYLADLDSVYERLTGQKKKPEQRRRAVRLSKRLGSPSHVLLRMRELLAPWTLELRWQADHERKSRRLEHHHHHH	failed
MSDKPTIEQLLNNVSIESLNDMQEDSLAANAKASDVILLSPTGSGKTLGFLLPVFQQLSVSSNSIQALVLVPSRELALQIESVFKSLKTGFKVTCCYGGHPMDVEENNLAQSPALLIGTPGRIVDHINRRNINLDDVKTLVLDEFDKSLEMGFQEDMAIIIGRLTGIKKRILTSATQAIKIPDFTGMQSPVTLNYITGQASGLSVKTVLSDTKDKFDTLLRLLCQIGNESVIVFCNQRDEVENVCAYLTEHGIINNNFHGGLEQRYRESTLTKFRNGSTNVLVTTDLAARGLDIPDVKHVIHYQMPHKIDAFTHRNGRTARMGSTGNAYMLLHKDVLLPDYITSKPDILKLSDQKVKPLLPQWETLFISAGKKDKINKIDIVGFLSKKGLLEKDELGLIEVKDQFAYAAVKRNKVESVIKLVKEEKIKGRKVKIEVARETPKFEAE	failed
MSDKQRVREQKHAWIYLFNLGFYILPMVLFPYQVWEIAVMVAALLVFIGLYYCCYSVPRQQMLWPILGMYIIACAVTPLNPGSIALFSYAGFFVGFAYNWRVALAAVAGIILTLATFHFGPGTSWDLFLPYGIVIVGTVSIFGRVERLRQQHAEEQERDAEEIERLATSVERERIARDLHDILGHTLSSIILKSDLAKAQLSKQRYDEASEQLVELSEIARESLSQVRQSVSGYKHGGLQLELRRLEQRLTDGGFSTRITGTPPIIDERRETSLVLAITELVTNIIRHSNGQQCLIHFDETANTYCIKVVDNGRCHDVSVGNGLSGVELRIQELGGSMSISTNKGCEVALFLPKLAEQQP	failed
MSDKRDARFYQEVLDICLTAGRLMIEGGSEMYRVEDTMLRIARNADINDPRVFATPTCVFMSLDGGKLSQMKQIRDRNINLELVDRVNELSREFATKKIDLSELKNRIIEVANAPSFPMWMQIIGAAVLSATLMVLFMDDYDWVDFPGAALVGAIGFWAYYEFKKYTKVRFLSELIAAMIMGVLALGLNYLYPKMIIDNILIGALMTLVPGLAMTNALRDLFMGDLLSGIVRMCEAILSALALGGGVGLVLKFVGG	failed
MSDLGDFADHGRDDDERGGDDDPAPADDDFDRPTLEATGSDDGLGALAVSEGLRIHEDGQETALKAYVTAGNRAAVRLGTYLVAPYPGGETLFCKITGLEYVQAFESDDATEIHARRAMRSDGVDEADYKFLAELDPVAVLSDEGDDITRRMPDRVPKPETVVRAADDAAEIKAGLKIPADGVFLGHLSVGGEKVRTAADPPTIDYRVKDGYEAGDPLVFRHTLIAGGTGSGKTHAAKNVLRQYLHEDRRYPVDSGGPERRMAVVQFDPQDEYAQMHDDNPDADASDRRQWETQGLAYGGHDDTVAFVPTVGSASYAADHHAAEQVAFTVPFSMVRDNPWLVASSGLNDNQYGALHLLLDRFFGQYGESGTYREFCAFLDDPALKEELDESGRVHEATYEAVLRRVNGMPNGLFDQDARSITALVEDREFVQPGRLSVVPTYHISNSRAAETVVLAVSSLLVDQKLSNDPRYDAIKRTPLLVGMDEAHNFLSDADSVQARKVVGKFTEAAKQGRKERLGLFLITQDPQDIAGPVFKQVNTTVVLNLGDEDAIQAVNIPATLQSKVPYMNTGQMVVYSPDNSEPVEVQGLATCVTRHGRD	failed
MSDLINIQKKLLPDVLMIMQKRYQILRSIYFSEPVGRRTLAGMLGMSERVLRGEVEFLKAQGLVEIASSGMTVTKEGLVVFRDLENVMNQLSGLHSMEEQLAKKLQIKKCLVVQGDSDDTPWVREEMGRVAVEQLDMALTEKRNIVAVMGGSTMATVAEMMTTDFAKGRELLFVPGRGGIGEDLDNQANTICDKMATKTNTKHRVLYVPEQLGEEAYRSLLKEPAIQEGLRLVQSANAIILGIGDALAMAKRRHTGEDVLEKIIRRKAVGEAFGYYFDEQGEVVHKVPTFGLQFEDLAQIPHIIAVAGGTSKAKAIKSYMKSAPKNTILITDEGAAKSLLKGSNTLLK	failed
MSDLQKLQRFSTCDISDGLLNVYNIPTGGYFPNLTAISPPQNSSIVGTAYTVLFAPIDDPRPAVNYIDSVPPNSILVLALEPHLQSQFHPFIKITQAMYGGLMSTRAQYLKSNGTVVFGRIRDVDEHRTLNHPVFAYGVGSCAPKAVVKAVGTNVQLKILTSDGVTQTICPGDYIAGDNNGIVRIPVQETDISKLVTYIEKSIEVDLLVSEDIKNGIPAKQAQNDRRSVLKKYI	not failed
MSDQVPKPHRHHIWRITRRTLSKSWDDSIFSESAQAAFWSALSLPPLLLGMLGSLAYVAPLFGPDTLPAIEKSALSTAHSFFSPSVVNEIIEPTIGDITNNARGEVASLGFLISLWAGSSAISAFVDAVVEAHDQTPLRHPVRQRFFALFLYVVMLVFLVATAPVMVVGPRKVSEHIPESLANLLRYGYYPALILGLTVGVILLYRVALPVPLPTHRLVLGAVLAIAVFLIATLGLRVYLAWITRTGYTYGALATPIAFLLFAFFGGFAIMLGAELNAAVQEEWPAPATHAHRLGNWLKARIGVGTTTYSSTAQHSAVAAEPPS	failed
MSDSIVGIPREDHQTFLYNPFTSQRYELPPLTIEDPHLKSVLRYGVLTGDPREDNTYACLVADSLHANLMAIGNTHPPSLHLYYVAKRNGEWDQNWSVTRIPTHNLPVVGSTIDSISPSADKISIIGWGHSFDFTFQSQDWNVTNINYTMEWNPFHGQSFDQIKHRLQIDPQTLDIIGTKTDRERVKNRIWFVINQIISHIDGVWVEVRA	failed
MSDSKEITKVIVTMVVISAVAAALLALTYTPTQAQLKLLQAEQQKEAMKEILPQAADFEPVTGSEVDDDGNPVVLYYKGVDSSGNVVGYVVERNQVGAQGMIQLLAGISSDFSTITGFQVMKHSETPGLGALITTPEFQGQFVDLPVADTSLTKNGGQVDAISGATISSQAVVDALHSAVDYVSAQEG	failed
MSDVIEGRLKELGFTLPVAAAPAANYVPFTISGNLLYVSGQLPMESGKIAVTGLVGRDVDVASAQRAAELCAVNILAQVKAALNGDLSKIRRVIKLNGFVASVPEFVEQHLVINGASNLIATVLGEPGRHARAAVGMASLPFNASVEIDAIVEIDV	not failed
MSDVISESALKSAKTEKNQKIYWDELKEGEQFSYGHYQVSEHENIDFAKRYDPMEFHVDPEKAKLSPIGALCASGIHTLGIMQRLTFDNIYTNWHIVAGRELRKCQFRLPVFVDDCLTVNMTIAKLSVDTRSDRGNAELTFDVKNAKGKTVLEVEGEIVLQRFPSI	failed
MSDVTQQKKRKRSKGEVNPSKPTVDEEITDPSSNEDEQLEVSDEEDALESEEEFEGENPADKRRRLAKQYLENLKSEANDILTDNRNAEEKDLNNLKERTIDEYNNFDAGDLDKDIIASRLKEDVAEQQGRVFRYFGDKLLISEAKQSFTRVGENNLTCISCFQPVLNKYTFEESSNGDKNKGRLFAYTVSKDLQLTKYDITDFSKRPKKLKYAKGGAKYIPTSKHEYENTTEGHYDEILTVAASPDGKYVVTGGRDRKLIVWSTESLSPVKVIPTKDRRGEVLSLAFRKNSDQLYASCADFKIRTYSINQFSQLEILYGHHDIVEDISALAMERCVTVGARDRTAMLWKIPDETRLTFRGGDEPQKLLRRWMKENAKEGEDGEVKYPDESEAPLFFCEGSIDVVSMVDDFHFITGSDNGNICLWSLAKKKPIFTERIAHGILPEPSFNDISGETDEELRKRQLQGKKLLQPFWITSLYAIPYSNVFISGSWSGSLKVWKISDNLRSFELLGELSGAKGVVTKIQVVESGKHGKEKFRILASIAKEHRLGRWIANVSGARNGIYSAVIDQTGF	failed
MSDWADLMNDLNKLQHSDAVTTAWQFTEQVPHGRDLGMQVVSVDQGQVCMRLTPQSWMFAHKDTKEICTSVLYSLADSAGGLAVFAGALELMPIATLDLRMDYLRPAIGDRALSAVATCRHLSDDVAFIHCDILSEGNRELLATANATFMRNTQGQQLHAGGPGKESA	failed
MSDYYLFAGRLFIAVMYVLSGANKLLFFSHGLDEVKSRNLPFPQLALSATIAVQLICGLAIMAGFQTTTASLLLALFTLATAVLFYDFWNQEGAQRTLMFTGFLEHISIIGGFALLMGAGPGKFVLLP	failed
MSEADGLRQRRPLRPQVVTDDGQVPEVKEGSSFSGRVFRMTFLMLAVSLAIPLLGAMMLLESPIDPQSFSFKEPPFMFGVLHPNTKLRQAERLFENQLSGPESIVNIGDVLFTGTADGRVVKLENGEIETIARFGSGPCKTRDDEPTCGRPLGIRAGPNGTLFVVDAYKGLFEVNPQKRSVKLLLSSETPIEGKKMSFVNDLTVTRDGRKIYFTDSSSKWQRRDYLLLVMEATDDGRLLEYDTVTKEVKVLLDQLQFPNGVQLSPEEDFVLVAETTMARIRRVYVSGLMKGGADMFVENMPGFPDNIRPSSSGGYWVAAATIRANPGFSMLDFLSDKPFIKRMIFKMFSQETVMKFVPRYSLVLEVSDSGAFRRSLHDPDGQVVTYVSEAHEHDGYLYLGSFRSPFICRLSLQSI	failed
MSEDLMDLSPEEGIERFLRHREPSVRESTMRNAKTRLRFFNEWCEERDIENLNNLTGRDLADFVAWRRGDIAALTLQKQLSTIREALRYWADIEGVDDGLAEKVHAPELEHHHHHH	failed
MSEEEQGSGTTTGCGLPSIEQMLAANPGKTPISLLQEYGTRIGKTPVYDLLKAEGQAHQPNFTFRVTVGDTSCTGQGPS	failed
MSEELMISPAAPAAPAAGSALTSAQFRKLAEVPPEIEWFANIDSLQTRRAYQNDLRGFMAFAGIVSPEDFRLITRSHVLAWRKRLEEEQLGGATIRRKLAALSSLFEYLCEANAVTHNPVKGVKRPPVESWQGKTPALGDVQARALLEAPNAKTLKGKRDRAILSALLYHGIRREELARLKVKDYNQSRRGVPHLRIKGKGGKMRFIPTHPGTLTLIEEYLEAAGHGHDPDAPLFRPVKNNVHGHTLTALTPDSIYFEVVLKYLRKLGIFGENMGPHVMRATAATNALDNGADIAKVQEWLGHANIATTRIYDHRKTRPEDSPTFKVSY	failed
MSEEQHILEVLQSDDAEQVREAAYSAGELRLEAAVPHLVRHLQSQNIGVQEAVDNALRKIGGAAAVAGVIPLLRSDDAPIRNISMDILRDIGRDEFDALKQLLHDEDPDIRIFASDILGTSGSILAVPALCEALLRDPEVNVRYQAAVSLGTLAFPEAADCLNKAMQDEEWVQFSVIEALIKIRAESSVNALVKALDTTSDLVASMIVDALGEMGNLKAVPLLLKRIEKSPTPLRNKIVRAIVSILGKKSLSLLGEREQQRLGAYLLAALDDEDEEVQDAAMVGLASLGQAEATVAVLRLAARLDPDRDHERLEAAIRCIGGIGFNEAVEEALSDENESTILMVVEAAADMNPAEIVPALKRIFWDKGRDAQRAIATQLARIASLEDVDFFLDLLERAEDAHVIKAALHFLGHRARPAGVGERMLALLDHPYDDVKEAALEACIALQDVSLCASFRERFHSGDPLQRMMATYAMGRLDVDGNLDVLREALVDDVPDVRKVALEALAGTCPITPEHLELVVPLMHDPVREVRLALVDLFGACPEESVIGHLLEALDDEDDWVRVRAIEALGRLGRKECVTPLIERVDGAGNLVLLKIIEALGSIGGNMAFRALLALMEHEDPEIQQAAEDAVARLGEQDSEGE	failed
